This is an account of results in patent US20250011363A1, “OPTIMIZED SHORTENED PEPTIDE THAT BINDS TO ACETYLCHOLINE RECEPTOR, AND USE THEREOF” (SKINMED CO., LTD., priority 2021, published 2025).

For assay [1], the target named is acetylcholine receptor. The assay can be described thus: SPR, receptor immobilised on chip, peptide at 10 uM. On the technique in general: In SPR one partner is held on a chip, and binding of the other changes the refractive index at the surface.
In assay [2] the target is acetylcholine receptor. The assay can be described thus: SPR, peptide at 10 uM on immobilized AchR.

B1: 6mer-2-961 (peptide)
peptide: KNTKKR
As to B1, the Binding affinity (RU) with acetylcholine receptor [1] is 21 RU.

B2: 6mer-2-963 (peptide)
peptide: KAKHRR
Take B2: the Binding affinity (RU) with acetylcholine receptor [1] amounted to 37 RU.

B3: 6mer-2-968 (peptide)
peptide: RHWEKK
In turn, B3 displayed a Binding affinity (RU) with acetylcholine receptor [1] of 39 RU.

B4: 6mer-2-995 (peptide)
peptide: KFWEKK
As to B4, in the assay with acetylcholine receptor [1], the Binding affinity (RU) was found to be 38 RU.

B5: 6mer-2-988 (peptide)
peptide: KMCEKK
B5 yielded a Binding affinity (RU) with acetylcholine receptor [1] of 41 RU.

B6: 6mer-2-962 (peptide)
peptide: KKSNRK
With B6, the Binding affinity (RU) in the assay with acetylcholine receptor [1] is 30 RU.

B7: 6mer-2-1018 (peptide)
peptide: RPTKKK
In the assay with acetylcholine receptor [2], B7 had a Binding affinity (RU) of 24 RU.

B8: 6mer-2-960 (peptide)
peptide: RDCVKR
As to B8, the Binding affinity (RU) with acetylcholine receptor [1] is 29 RU.

B9: 6mer-2-990 (peptide)
peptide: RKKMKR
B9 yielded a Binding affinity (RU) with acetylcholine receptor [1] of 41 RU.

B10: 6mer-2-974 (peptide)
peptide: RFDDRR
In the case of B10, the Binding affinity (RU) in the assay with acetylcholine receptor [1] amounted to 38 RU.

B11: 6mer-2-1017 (peptide)
peptide: RAPVRR
In the case of B11, the Binding affinity (RU) in the assay with acetylcholine receptor [2] was 40 RU.

B12: 6mer-2-985 (peptide)
peptide: REMNKR
In the assay with acetylcholine receptor [1], B12 registered a Binding affinity (RU) of 34 RU.

B13: 6mer-2-979 (peptide)
peptide: KKAFKK
For B13, in the assay with acetylcholine receptor [1], the Binding affinity (RU) amounted to 22 RU.

B14: 6mer-2-1015 (peptide)
peptide: RDEMKR
Turning to B14, in the assay with acetylcholine receptor [2], the Binding affinity (RU) was found to be 29 RU.

B15: 6mer-2-958 (peptide)
peptide: KFKARK
In the assay with acetylcholine receptor [1], B15 yielded a Binding affinity (RU) of 28 RU.

B16: 6mer-2-954 (peptide)
peptide: KCTIRK
B16 returned a Binding affinity (RU) with acetylcholine receptor [1] of 32 RU.

B17: 6mer-2-1003 (peptide)
peptide: KPEWKR
Regarding B17, the Binding affinity (RU) with acetylcholine receptor [2] stood at 42 RU.

B18: 6mer-2-953 (peptide)
peptide: KESVKK
B18 had a Binding affinity (RU) in the assay with acetylcholine receptor [1] of 25 RU.

B19: 6mer-2-1000 (peptide)
peptide: KCHDKK
With B19, the Binding affinity (RU) with acetylcholine receptor [2] was determined as 41 RU.

B20: 6mer-2-994 (peptide)
peptide: KYCIKK
Consider B20, for which, in the assay with acetylcholine receptor [1], the Binding affinity (RU) amounted to 41 RU.

B21: 6mer-2-996 (peptide)
peptide: RHDARK
With B21, in the assay with acetylcholine receptor [1], the Binding affinity (RU) amounted to 40 RU.

B22: 6mer-2-971 (peptide)
peptide: KEMFRK
In the assay with acetylcholine receptor [1], B22 showed a Binding affinity (RU) of 29 RU.

B23: 6mer-2-1001 (peptide)
peptide: RKKFKK
In the case of B23, in the assay with acetylcholine receptor [2], the Binding affinity (RU) worked out at 37 RU.

B24: 6mer-2-957 (peptide)
peptide: RDTHRR
As for B24, the Binding affinity (RU) in the assay with acetylcholine receptor [1] amounted to 40 RU.

B25: 6mer-2-984 (peptide)
peptide: KDMWKK
As for B25, the Binding affinity (RU) with acetylcholine receptor [1] is 43 RU.

B26: 6mer-2-986 (peptide)
peptide: KNWARR
Regarding B26, the Binding affinity (RU) in the assay with acetylcholine receptor [1] was determined as 27 RU.

B27: 6mer-2-1012 (peptide)
peptide: KASAKK
In the assay with acetylcholine receptor [2], B27 returned a Binding affinity (RU) of 30 RU.

B28: 6mer-2-951 (peptide)
peptide: RADEKK
B28 had a Binding affinity (RU) with acetylcholine receptor [1] of 42 RU.

B29: 6mer-2-969 (peptide)
peptide: KATHKR
B29 registered a Binding affinity (RU) with acetylcholine receptor [1] of 33 RU.

B30: 6mer-2-976 (peptide)
peptide: RTTGKK
The molecule B30 showed a Binding affinity (RU) in the assay with acetylcholine receptor [1] of 26 RU.

B31: 6mer-2-1005 (peptide)
peptide: RFKARR
In turn, B31 came in with a Binding affinity (RU) with acetylcholine receptor [2] of 23 RU.

B32: 6mer-2-950 (peptide)
peptide: KYNKRR
The molecule B32 yielded a Binding affinity (RU) in the assay with acetylcholine receptor [1] of 26 RU.

B33: 6mer-2-997 (peptide)
peptide: KISFKK
As for B33, the Binding affinity (RU) in the assay with acetylcholine receptor [1] amounted to 30 RU.

B34: 6mer-2-973 (peptide)
peptide: KCPIKK
Molecule B34 showed a Binding affinity (RU) in the assay with acetylcholine receptor [1] of 41 RU.

B35: 6mer-2-981 (peptide)
peptide: RCEIRK
On to B35, for which, in the assay with acetylcholine receptor [1], the Binding affinity (RU) amounted to 32 RU.

B36: 6mer-2-964 (peptide)
peptide: KCEDRK
As to B36, in the assay with acetylcholine receptor [1], the Binding affinity (RU) worked out at 41 RU.

B37: 6mer-2-965 (peptide)
peptide: KPWFKR
In turn, B37 returned a Binding affinity (RU) in the assay with acetylcholine receptor [1] of 36 RU.

B38: 6mer-2-972 (peptide)
peptide: KAMFRR
On to B38, for which, in the assay with acetylcholine receptor [1], the Binding affinity (RU) worked out at 38 RU.

B39: 6mer-2-1016 (peptide)
peptide: RNEEKR
In turn, B39 yielded a Binding affinity (RU) with acetylcholine receptor [2] of 41 RU.

B40: 6mer-2-975 (peptide)
peptide: KKTMKK
The molecule B40 showed a Binding affinity (RU) in the assay with acetylcholine receptor [1] of 38 RU.

B41: 6mer-2-1013 (peptide)
peptide: KPPDKR
B41: the Binding affinity (RU) with acetylcholine receptor [2] is 23 RU.

B42: 6mer-2-999 (peptide)
peptide: RATIKR
In turn, B42 returned a Binding affinity (RU) with acetylcholine receptor [2] of 31 RU.

B43: 6mer-2-993 (peptide)
peptide: RHDVKK
B43: the Binding affinity (RU) with acetylcholine receptor [1] worked out at 29 RU.

B44: 6mer-2-959 (peptide)
peptide: RTNARK
The molecule B44 yielded a Binding affinity (RU) in the assay with acetylcholine receptor [1] of 35 RU.

B45: 6mer-2-1019 (peptide)
peptide: RNTWKK
In turn, B45 returned a Binding affinity (RU) with acetylcholine receptor [2] of 23 RU.

B46: 6mer-2-1002 (peptide)
peptide: RCNDKR
Consider B46, for which the Binding affinity (RU) with acetylcholine receptor [2] came out at 42 RU.

B47: 6mer-2-1008 (peptide)
peptide: RAWKKR
B47: the Binding affinity (RU) with acetylcholine receptor [2] worked out at 38 RU.

B48: 6mer-2-991 (peptide)
peptide: KCHFRR
B48 yielded a Binding affinity (RU) with acetylcholine receptor [1] of 30 RU.

B49: 6mer-2-978 (peptide)
peptide: KEPHRR
B49 yielded a Binding affinity (RU) with acetylcholine receptor [1] of 28 RU.

B50: 6mer-2-970 (peptide)
peptide: KDDVRR
Turning to B50, the Binding affinity (RU) with acetylcholine receptor [1] came to 27 RU.

B51: 6mer-2-1011 (peptide)
peptide: RAEFRR
Take B51: the Binding affinity (RU) with acetylcholine receptor [2] was found to be 22 RU.

B52: 6mer-2-967 (peptide)
peptide: RTSNKK
The molecule B52 came in with a Binding affinity (RU) in the assay with acetylcholine receptor [1] of 35 RU.

B53: 6mer-2-982 (peptide)
peptide: RMHAKK
Take B53: the Binding affinity (RU) with acetylcholine receptor [1] is 38 RU.

B54: 6mer-2-998 (peptide)
peptide: KEMWKK
Take B54: the Binding affinity (RU) in the assay with acetylcholine receptor [1] stood at 43 RU.

B55: 6mer-2-955 (peptide)
peptide: RMPERR
In the assay with acetylcholine receptor [1], B55 showed a Binding affinity (RU) of 29 RU.

B56: 6mer-2-977 (peptide)
peptide: REMKRK
As for B56, in the assay with acetylcholine receptor [1], the Binding affinity (RU) is 30 RU.

B57: 6mer-2-992 (peptide)
peptide: RMHFRR
On to B57, for which, in the assay with acetylcholine receptor [1], the Binding affinity (RU) was determined as 33 RU.

B58: 6mer-2-987 (peptide)
peptide: RCHPKK
In the assay with acetylcholine receptor [1], B58 returned a Binding affinity (RU) of 22 RU.

B59: 6mer-2-956 (peptide)
peptide: KFCWRR
In the case of B59, the Binding affinity (RU) with acetylcholine receptor [1] is 28 RU.

B60: 6mer-2-983 (peptide)
peptide: RTWHRR
Regarding B60, in the assay with acetylcholine receptor [1], the Binding affinity (RU) is 37 RU.

B61: 6mer-2-980 (peptide)
peptide: KESGKR
B61 gave a Binding affinity (RU) with acetylcholine receptor [1] of 34 RU.

B62: 6mer-2-1007 (peptide)
peptide: RHTNKK
For B62, the Binding affinity (RU) with acetylcholine receptor [2] was found to be 42 RU.

B63: 6mer-2-1020 (peptide)
peptide: KHDKKR
As to B63, the Binding affinity (RU) with acetylcholine receptor [2] is 21 RU.

B64: 6mer-2-1004 (peptide)
peptide: RDTHKR
For the molecule B64, the Binding affinity (RU) in the assay with acetylcholine receptor [2] was found to be 38 RU.

B65: 6mer-2-989 (peptide)
peptide: KAHNKR
In turn, B65 displayed a Binding affinity (RU) with acetylcholine receptor [1] of 22 RU.

B66: 6mer-2-1010 (peptide)
peptide: RANHKK
With B66, the Binding affinity (RU) in the assay with acetylcholine receptor [2] is 36 RU.

B67: 6mer-2-952 (peptide)
peptide: KYWGRR
B67 showed a Binding affinity (RU) with acetylcholine receptor [1] of 24 RU.

B68: 6mer-2-966 (peptide)
peptide: KEDAKR
Regarding B68, the Binding affinity (RU) with acetylcholine receptor [1] was found to be 41 RU.

B69: 6mer-2-1014 (peptide)
peptide: RPPMRR
B69 showed a Binding affinity (RU) with acetylcholine receptor [2] of 34 RU.

B70: 6mer-2-1006 (peptide)
peptide: RATMRR
Regarding B70, the Binding affinity (RU) in the assay with acetylcholine receptor [2] was found to be 30 RU.

B71: 6mer-2-1009 (peptide)
peptide: KINPRK
B71: the Binding affinity (RU) with acetylcholine receptor [2] came to 34 RU.
